Test results published in the supplement of paper PMC10126150.
± gives the standard deviation of the averaged measurements.

Test system: ATP
Assay: switch fluorescence ratio, 500 uM ATP over buffer (Cy3 cluster intensity, sum of 5 cycles each) (fold (ratio)); higher = stronger signal-on switching upon ATP binding; sequences stand for … in TCGTCGGCAGCGTCAGATGTGTATAAGAGACAGTTTTTTTTTTTTTTTTTTTTTTTTT…TC
Settings: aptamer strand: ATP DNA aptamer (quencher-CACCTGGGGGAGTATTGCGGAGGAAGG + anchor), 100 nM annealed; ATP concentration: 500 uM
Outline: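 Values give the fluorescence ratio for each switch-domain sequence, averaged from per-cluster ratios of summed target-cycle to summed buffer-cycle Cy3 intensity. The Cy3-labelled switching-strand clusters sat on a modified Illumina MiSeq flow-cell, were annealed to 100 nM quencher-labelled ATP aptamer, and were imaged in selection buffer, then after 15 min with 500 uM ATP at 22 °C. Five cycles ran with NaOH stripping and re-annealing between them, and clusters outside 100-1000 RFU were excluded.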
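Also: ATP exposure 15 min at 22 °C before imaging.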

| Sequence | switch fluorescence ratio |
| --- | --- |
| ATGGGGGTTT | 0.984 ± 0.042 |
| ATGGGGTCCA | 0.976 ± 0.042 |
| ATGGGGTGCT | 0.986 ± 0.035 |
| ATGGGGTTCT | 0.992 ± 0.022 |
| ATGGGGTTTC | 1.01 ± 0.051 |
| ATGGGTGAAG | 0.9848 ± 0.0096 |
| ATGGGTGTTG | 0.992 ± 0.022 |
| ATGGGTTGGG | 0.991 ± 0.017 |
| ATGGGTTGTG | 1 ± 0.03 |
| ATGGTAACGT | 1.01 ± 0.044 |
| ATGGTAAGGT | 1 ± 0.014 |
| ATGGTAGCCG | 0.981 ± 0.012 |
| ATGGTAGGTA | 1 ± 0.031 |
| ATGGTATGCT | 0.992 ± 0.022 |
| ATGGTATTTC | 0.9887 ± 0.0013 |
| ATGGTCGAGC | 0.9822 ± 0.0076 |
| ATGGTCGATG | 0.965 ± 0.02 |
| ATGGTCGGCA | 0.985 ± 0.034 |
| ATGGTGAGGC | 0.95 ± 0.018 |
| ATGGTGCCCC | 1.09 ± 0.049 |
| ATGGTGCTGA | 1.01 ± 0.014 |
| ATGGTGTCAG | 0.994 ± 0.046 |
| ATGGTGTGAG | 1.02 ± 0.016 |
| ATGGTGTGTG | 1.01 ± 0.033 |
| ATGGTTAGAT | 1.01 ± 0.017 |
| ATGGTTATCT | 1.01 ± 0.034 |

| Sequence | switch fluorescence ratio |
| --- | --- |
| ATGGTTCCCC | 1.03 ± 0.013 |
| ATGGTTCGCG | 1 ± 0.015 |
| ATGGTTGAGC | 1.03 ± 0.024 |
| ATGGTTGCAG | 0.9553 ± 0.004 |
| ATGGTTGGAC | 0.9925 ± 0.0094 |
| ATGGTTGGGG | 0.994 ± 0.031 |
| ATGGTTTGAG | 0.997 ± 0.026 |
| ATGGTTTTGC | 0.977 ± 0.029 |
| ATGGTTTTTG | 1.01 ± 0.013 |
| ATGTAAAAAC | 0.965 ± 0.029 |
| ATGTAAAATG | 1.04 ± 0.066 |
| ATGTAAAGTC | 1.018 ± 0.0031 |
| ATGTAAATTT | 1.01 ± 0.005 |
| ATGTACCGCG | 1.06 ± 0.016 |
| ATGTACGCGT | 0.995 ± 0.024 |
| ATGTAGTGGC | 0.995 ± 0.049 |
| ATGTATAAAG | 0.987 ± 0.03 |
| ATGTATAGAG | 1.03 ± 0.026 |
| ATGTATAGTT | 1.02 ± 0.017 |
| ATGTATCATA | 0.993 ± 0.025 |
| ATGTATGGGT | 0.992 ± 0.036 |
| ATGTATTCGA | 0.996 ± 0.027 |
| ATGTATTCGC | 0.983 ± 0.014 |
| ATGTATTGGT | 0.991 ± 0.026 |
| ATGTCAAAAG | 1 ± 0.022 |
| ATGTCAAGGA | 0.985 ± 0.042 |

| Sequence | switch fluorescence ratio |
| --- | --- |
| ATGTCAGTGT | 0.985 ± 0.074 |
| ATGTCCACTT | 1 ± 0.036 |
| ATGTCCTTAT | 0.988 ± 0.029 |
| ATGTCTTTGA | 1.03 ± 0.038 |
| ATGTGAATTG | 1.01 ± 0.019 |
| ATGTGAGCGG | 1.01 ± 0.038 |
| ATGTGCAGGG | 1.03 ± 0.013 |
| ATGTGGAGGG | 0.983 ± 0.033 |
| ATGTGGCTGA | 1.021 ± 0.0038 |
| ATGTGGGAGG | 1 ± 0.016 |
| ATGTGGGAGT | 0.979 ± 0.034 |
| ATGTGGGATA | 1.01 ± 0.063 |
| ATGTGGGATT | 0.965 ± 0.013 |
| ATGTGGGGCC | 0.995 ± 0.042 |
| ATGTGGTATG | 0.984 ± 0.031 |
| ATGTGTGAAT | 0.997 ± 0.015 |
| ATGTGTGGCT | 1.01 ± 0.022 |
| ATGTGTGTAT | 1.12 ± 0.2 |
| ATGTGTTAGC | 0.999 ± 0.058 |
| ATGTTACCGG | 1.054 ± 0.0038 |
| ATGTTACGTT | 1.02 ± 0.021 |
| ATGTTAGGAA | 1 ± 0.0065 |
| ATGTTATTGC | 1 ± 0.022 |
| ATGTTATTTG | 0.963 ± 0.022 |
| ATGTTATTTT | 1.013 ± 0.0049 |
| ATGTTGAAGC | 0.9619 ± 0.0078 |

| Sequence | switch fluorescence ratio |
| --- | --- |
| ATGTTGATCT | 0.983 ± 0.024 |
| ATGTTGGGCA | 1.01 ± 0.028 |
| ATGTTGGTAT | 1 ± 0.022 |
| ATGTTGTCGA | 1.01 ± 0.031 |
| ATGTTGTTGT | 0.981 ± 0.033 |
| ATGTTTAGAA | 0.9607 ± 0.0073 |
| ATGTTTTACG | 0.988 ± 0.049 |
| ATGTTTTAGA | 0.95 ± 0.015 |
| ATGTTTTGCT | 0.965 ± 0.029 |
| ATGTTTTTTT | 0.9915 ± 0.0073 |
| ATTAAACCGG | 0.997 ± 0.024 |
| ATTAAAGCGT | 1 ± 0.016 |
| ATTAAAGGAT | 0.995 ± 0.033 |
| ATTAAAGGGA | 1 ± 0.037 |
| ATTAAAGGGC | 0.992 ± 0.013 |
| ATTAAATAG | 0.9803 ± 0.0081 |
| ATTAAATTAG | 1.04 ± 0.051 |
| ATTAAGACAG | 0.973 ± 0.032 |
| ATTAAGGAGG | 0.99014 ± 0.00011 |
| ATTAAGGGTG | 1.04 ± 0.093 |
| ATTAAGGTAG | 1 ± 0.014 |
| ATTAAGGTCA | 1.064 ± 0.0069 |
| ATTAAGTGTG | 0.99638 ± 0.00091 |
| ATTAATATGT | 0.999 ± 0.023 |
| ATTAATCGAC | 1.03 ± 0.092 |
| ATTAATCTGA | 0.96 ± 0.029 |

| Sequence | switch fluorescence ratio |
| --- | --- |
| ATTAATTATC | 0.993 ± 0.031 |
| ATTAATTGTT | 0.993 ± 0.012 |
| ATTACAGGAC | 1.08 ± 0.012 |
| ATTACCGGGG | 1.05 ± 0.035 |
| ATTACGGGGG | 1.01 ± 0.088 |
| ATTACGTCCT | 1.03 ± 0.036 |
| ATTACTAAAT | 1.01 ± 0.02 |
| ATTACTAGGA | 1 ± 0.057 |
| ATTACTGGGG | 0.99 ± 0.019 |
| ATTAGAAATG | 0.9973 ± 0.0062 |
| ATTAGACTTG | 1.01 ± 0.065 |
| ATTAGCAGGC | 1.11 ± 0.012 |
| ATTAGCGTTT | 0.977 ± 0.066 |
| ATTAGGGGGG | 0.998 ± 0.012 |
| ATTAGGGGGT | 0.988 ± 0.036 |
| ATTAGGGTAA | 1.02 ± 0.026 |
| ATTAGGTATA | 0.9712 ± 0.0036 |
| ATTAGGTTCT | 0.97 ± 0.051 |
| ATTAGGTTGG | 0.987 ± 0.027 |
| ATTAGTAAAG | 0.9972 ± 0.0073 |
| ATTAGTCAAT | 1.0167 ± 0.0006 |
| ATTAGTGAGC | 1.03 ± 0.051 |
| ATTAGTGGCA | 0.982 ± 0.013 |
| ATTAGTTATT | 1.02 ± 0.015 |
| ATTAGTTTGA | 0.985 ± 0.014 |
| ATTATAAAGC | 1.03 ± 0.063 |

| Sequence | switch fluorescence ratio |
| --- | --- |
| ATTATATTGC | 1.01 ± 0.026 |
| ATTATCACGA | 0.989 ± 0.014 |
| ATTATCCGCT | 1.15 ± 0.014 |
| ATTATGCTG | 0.98 ± 0.05 |
| ATTATGCTGG | 0.994 ± 0.026 |
| ATTATGGGAT | 0.996 ± 0.029 |
| ATTATGGGGA | 0.995 ± 0.016 |
| ATTATGGTCA | 0.994 ± 0.023 |
| ATTATGTTGT | 0.981 ± 0.028 |
| ATTATTAACG | 0.993 ± 0.033 |
| ATTATTCGGT | 0.986 ± 0.013 |
| ATTATTGAGA | 1.036 ± 0.004 |
| ATTATTGGTA | 0.987 ± 0.012 |
| ATTATTGGTC | 0.99 ± 0.029 |
| ATTATTTGCC | 0.99 ± 0.01 |
| ATTCAATTTT | 0.996 ± 0.051 |
| ATTCACCGCG | 1.155 ± 0.0057 |
| ATTCACGGCC | 1.06 ± 0.043 |
| ATTCAGAAGG | 1.01 ± 0.041 |
| ATTCAGCATT | 1.05 ± 0.02 |
| ATTCATCGTA | 1.0012 ± 0.0006 |
| ATTCATGGGT | 0.998 ± 0.024 |
| ATTCATTTTT | 1.004 ± 0.01 |
